Data reported in paper doi:10.1101/2023.06.05.543797, “Crystal structure of SUN1-KASH6 reveals an asymmetric LINC complex architecture compatible with nuclear membrane insertion” (bioRxiv, 2023).

Molecular target: the molecule itself
Test: crystal structure; co-expressed and co-purified SUN1-KASH6 complex at 12 mg/ml; sitting drops, 20°C; crystals at pH 6.0 (1.7 Å) and pH 5.5 (2.0 Å and 2.3 Å)

B1: KASH domain of human JAW1/LRMP (amino-acids 515-555) (peptide, UniProt Q12912 515-555, looked up)
chain: TGQLFQKSVDAAPTQQEDSWTSLEHILWPFTRLRHNGPPPV
notes: JAW1/LRMP (lymphoid restricted membrane protein), human, KASH domain, amino-acids 515-555; also called KASH6; KASH6 peptide; not shown: His6, N-terminal, cleaved; MBP, N-terminal, cleaved
**Q.** Does B1 bind?
**A.** Result: binds
